Patent US20070292895

Assays:
[1] = target: T1, coumarin-labeled 10-mer peptide substrate REVNFEVEFR
T1 chain: REVNFEVEFR

[2] = target: statine-Val (a peptide BACE-1 inhibitor)

B1: mouse brain BACE-1 (MES membrane preparation from wild-type mice) (protein)
chain: ETDEESEEPGRRGSFVEMVDNLRGKSGQGYYVEMTVGSPPQTLNILVDTGSSNFAVGAAPHPFLHRYYQRQLSSTYRDLRKGVYVPYTQGKWEGELGTDLVSIPHGPNVTVRANIAAITESDKFFINGSNWEGILGLAYAEIARPDDSLEPFFDSLVKQTHIPNIFSLQLCGAGFPLNQTEALASVGGSMIIGGIDHSLYTGSLWYTPIRREWYYEVIIVRVEINGQDLKMDCKEYNYDKSIVDSGTTNLRLPKKVFEAAVKSIKAASSTEKFPDGFWLGEQLVCWQAGTTPWNIFPVISLYLMGEVTNQSFRITILPQQYLRPVEDVATSQDDCYKFAVSQSSTGTVMGAVIMEGFYVVFDRARKRIGFAVSACHVHDEFRTAAVEGPFVTADMEDCGYNIPQTDESTLMTIAYVMAAICALFMLPLCLMVCQWRCLRCLRHQHDDFADDISLLK
Q: Which results are given for B1?
A: hydrolysis of substrate (HPLC) [1]: hydrolysis was observed to be about 15% of total substrate that had been added in the reaction; substrate cleavage (HPLC product peak), brain extract [2]: BACE-1 inhibitor's Stat(V) and Merck-3 led to complete abolition of substrate cleavage
